Broadly, the stoichiometry N is a count of units in the complex or per binding partner.

In the assay the target is cross-linked CA(M66I) hexamer, CA(A14C/E45C/W184A/M185A) with M66I (HIV-1). The assay can be described thus: crystal structure.

“cross-linked CA(M66I) hexamer, CA(A14C/E45C/W184A/M185A) with M66I (natural protein)” displayed a stoichiometry N of 6.
